Assay results from the DeepSol protein solubility set.

Test: soluble on expression in E. coli; label from the status in PepcDB or PDB records

Which “soluble on expression in E. coli” value does the source give for “MPATNDGPDDGAHLSKSEQTRALILETAMRLFQERGYDRTTMRAIAQEAGVSVGNAYYYFAGKEHLIQGFYDRIAAEHRAAVREVLARETDLEARLAGVLKVWLDIATPYHEFAVQFFKNAADPDSPLSPFSPESEHARVEAIGIHRAVLAGAKTKVPEELRDILPELMWLSQMGLVLYWIFDRTEGRERSYRLAERGARLTARGVVLARFRVLRPLVREVHELFTDFLPGMTKVMPDPAKKPTRDAGPQA” here?
The value was “soluble”.

For “MSLDQAIRRNPNVPVVVRGWLHKQDSSGMRLWKRRWFVLADYCLFYYKDSREEAVLGSIPLPSYVISPVAPEDRISRKYSFKAVHTGMRALIYNSSTAGSQAEQSGMRTYYFSADTQEDMNAWVRAMNQAAQVLSRSSLKRDMEKVERQAVPQANHTEGHHHHHH”, which “soluble on expression in E. coli” value is on record?
Its value is “soluble”.

With “GQEVTVSCAEGDTGFIYAGLLDVQITDVALDNMPKAPVKVMMNVGNPELAFSFANLPSEGIGLARMEFIINRQIGIHPKALLEFDKQDDELKAEITRRIAGYASPVDFYVDKIAEGVATLAASVYPRKTIVRMSDFKSNEYANL” as the sequence, how does the “soluble on expression in E. coli” value read?
Its value is “not soluble”.

Which “soluble on expression in E. coli” value does the source give for “MGSDKIHHHHHHMSRNSPLEISRTLVAALSTQMFRYYEDRIPQDASVLVVSNHRSFMDALILMAALSSPIRFACHHYMGQVPVMREIVTGQLGCFPLEETQNRQQSFFSQSQLLLQSKQMVGVFPEGTAPMVKSTQPNQVGEFQRGFAHLALRADVQDLAILPIAIASLEEVNTNGFPLRLLSVFDPSEPLFNQAGWHPLVIYRRVAVLIGRPYWITPQHQKKYHGKQARTVVAELTEHCHGEISHLLRQGCY” here?
Its value is “not soluble”.

With “MNAKEILVHSLRLLENGDARGWCDLFHPEGVLEFPYAPPGWKTRFEGRETIWAHMRLFPEHLTVRFTDVQFYETADPDLAIGEFHGDGVATVSGGKLAQDYISVLRTRDGQILLYRDFWNPLRHLEALGGVEAAAKIVQGA” as the sequence, how does the “soluble on expression in E. coli” value read?
Its value is “soluble”.

Which “soluble on expression in E. coli” value does the source give for “MENQTKCNISYRRIRIDKKKPPKTALKIKCLFTFSGFQEMLHVDKVDSLQTEKVNIRASGLVEWSCYTFILRLHYDRGTYASFCVARSDSLGCIDLSRDAPIRGTYTEVDQMGLFISIEPTQSIRPGHFFKTYDPKTYYYTLQLLDDSKKIIDEIHLKKHWKHPLVEQINVEQNGLYGTLFKPPGKGPFPAVIFIPGSNGMLESGYAAVLASEGFLTFTFAYFAYKKDLPKLIPDVDIEFFEKPIEYVQNSPYCSGKIGLVGQSFGGLTANYLSTKYHQVSAVVALNCSAAFCRDNAVMKENGKPMETQILDEGMSDFVNQVLRQKPAFRDLYSNLTPTTSIPWARAPKNTAYRIVQCYDDMLVDAVPSIINICGNLRKTGHHVESELVPGGHFLYFPYFPHHGIIYNAQINMLWGFGGECYQHSKSQETTWKKNVEFFKKHLGDVKRIPEWKRESTVTLPVSTKSSKSLQCKL” here?
Its value is “not soluble”.

With “MKTKIINLVVVTGMSGAGKTVAIQSFEDIGYFTIDNIPPSLVPKVIELLKHSEETDKIALVVDMRSRVFFDEINDILDQLESNEELNFKILFLDATDGELVSRYKETRRSHPLAADGRVLDGIKLERELLSPLKSLSQNVVDTTKLTPRQLRKAISEQFSSKQDQSSFRIEVLSFGFKYGLPLDADLVFDVRFLPNPYYDPTLRNLTGLDKEVYDFVMTHKESEDFYKNLNHLIKPILPGYQKEGKSVLTIAVGCTGGQHRSVAFAHRLAQDLKNDWTVNETHRDKDRRKETVNRS” as the sequence, how does the “soluble on expression in E. coli” value read?
The value was “not soluble”.

Which “soluble on expression in E. coli” value does the source give for “MSLKKTVSLCDITITQMLEEDSNQGHLIGDFSKVCALPTVSGKHQDLKYVNPETVAALLSGKFQGLIEKFYVIDCRYPYEYLGGHIQGALNLYSQEELFNFFLKKPIVPLDTQKRIIIVFHCEFSSERGPRMCRCLREEDRSLNQYPALYYPELYILKGGYRDFFPEYMELCEPQSYCPMHHQDHKTELLRCRSQSKVQEEGHHHHHH” here?
Its value is “soluble”.

With “MKPKTRLYYAERLEPVLAWLAARPDADADLHRLAELACLSPYYFHRVYRALLGETVHATVQRMRLARASVALAQGKGSLRQVADRAGYASEAAFSRAFSAQYGLPPGRYRAKRSSPFNPEELRMYPLTMEDFPGLSLAILAHQGDYQEIGNTFDRLALLAAIQDLVRDGMQPPPRYIGVYYDDPAQVARDALRSRAGVSLPPGTAAPAPFEPLDIPAMRCAVLEYTGPYSEIEAPYNWLFSQWLPASGQEPGDFPMFEEYLNDPKTTPAAQLKTRIYLPLA” as the sequence, how does the “soluble on expression in E. coli” value read?
Its value is “not soluble”.

Which “soluble on expression in E. coli” value does the source give for “MSSRKQGSQPRGQQSAEEENFKKPTRSNMQRSKMRGASSGKKTAGPQQKNLEPALPGRWGGRSAENPPSGSVRKTRKNKQKTPGNGDGGSTSEAPQPPRKKRARADPTVESEEAFKNRMEVKVKIPEELKPWLVEDWDLVTRQKQLFQLPAKKNVDAILEEYANCKKSQGNVDNKEYAVNEVVAGIKEYFNVMLGTQLLYKFERPQYAEILLAHPDAPMSQVYGAPHLLRLFVRIGAMLAYTPLDEKSLALLLGYLHDFLKYLAKNSASLFTASDYKVASAEYHRKALLEHHHHHH” here?
Its value is “not soluble”.

Which “soluble on expression in E. coli” value does the source give for “MQRYLWQQADGKRHVYDTARHRVQAGRPFTALCGETVTPQTERGDLTAGLWFDGECPVCTIALAKALGWPVREISDLAHRFDWSPALITRLAEVLHCSFGEVVELTGARMVDA” here?
Its value is “not soluble”.

With “GSGRVSLNFKDPEAVRALTCTLLREDFGLSIDIPLERLIPTVPLRLNYIHWVEDLIGHQDSDKSTLRRGIDIGTGASCIYPLLGATLNGWYFLATEVDDMCFNYAKKNVEQNNLSDLIKVVKVPQKTLLMDALKEESEIIYDFCMCNPPFFANQLEAKGVNSRNPRRPPPSSVNTGGITEIMAEGGELEFVKRIIHDSLQLKKRLRWYSCMLGKKCSLAPLKEELRIQGVPKVTYTEFCQGRTMRWALAWSFYD” as the sequence, how does the “soluble on expression in E. coli” value read?
The value was “soluble”.

For “AWFDWPVHRVYVNIGKTRRFHQHYYRRDVGSHVWQHNPVHRRGVAYRDRKTSDFYGKRPPRMAPVRPETRGYPGKFPGRPESRQQQPARERRDVPGAPQTGKGPGQVPRRDSTVAPQAQPPQREQVQKPARRDTPFQGVGEGSFERRAIKRGESSIRSVTPAPQGGGRGGWSGQRAPSGGGRGGGEMRMPGGGGGGGRGGGKKEFR”, which “soluble on expression in E. coli” value is on record?
The value was “not soluble”.

With “MSLSANDVNKDHLQTSIKQCENNGNGQEEGLKNPSKSGTTFYVPWEGSENFLSCQSKNGTPIMMVAYQTVLRDPLPGEEENVHLAARLLAGTVVKPGEVFSQNNKIGPYVIARGFKKGPTYIGTKLTTTIGGGVCKMASTLYNVAILSNLPVVERHAHSMPVPYVPYGQDATVSYGNKDLKFKNDTSSPIMIWAQGVDNILYVAFYSSTKPPEVEWHHEMLKLIKADKVYKMSSTLPKGREKLLMEGMDGAIVKSWVTVKNPDGTVIKRDLRKSYYNPMPHVYEKGKEGHHHHHH” as the sequence, how does the “soluble on expression in E. coli” value read?
Its value is “soluble”.

Which “soluble on expression in E. coli” value does the source give for “MAHHHHHHMGTLEAQTQGPGSMNDYKLFRCIQCGFEYDEALGWPEDGIAAGTRWDDIPDDWSCPDCGAAKSDFEMVEVARS” here?
Its value is “soluble”.

Which “soluble on expression in E. coli” value does the source give for “MKKLITALSLVLVSYASMAAQECSLDFVKSAPNSRYLYSDLGVVTDLKTGLTWMRCPVGMTWDMAQKACSGEAQKVTWQNALLTAEQIRNASGNHVLHNFADKKQWRLPNIKELVTLTERACFHPSMNGTAFESAYSLETGDLGSYIWSNTPGTDARQIMTFESVNGDVIGYSPEANQFSVLLVTDEDLEHHHHHH” here?
The value was “not soluble”.

For “MYQVIKMYGDWEPWWFIDGWQDDIIDEQQFSDWQEALDYFNQEWQRMKAIFPSYHSQKNLLATFWEKEDKRWCEDCDEDLQQFHSLLLLKNKDIVPSNNYIPEFEQRNDSPQVAYLCKLNLLEHHHHHH”, which “soluble on expression in E. coli” value is on record?
The value was “soluble”.

With “MGSDKIHHHHHHMTVCVWCQRPLKTSLTLAQFWRWGPVTPPDICVPCQGRLSPISGQHCPQCGRQQTTCQLCQDCQRWDQPLVNRALYCYDAEMKAYMQQYKFQGDYALQRVLQRALATALTQLTYDILVPIPIAQSTWQSRGFNQVTGWLTGQAYYQVLQVIDQDKATPQSAKNRAQRFLLTPQPFTLAPQAKDLCHGQRVLLLDDVYTTGRTLRHAATQINLTGAKAVTSLTLAR” as the sequence, how does the “soluble on expression in E. coli” value read?
The value was “not soluble”.
